Drawing on patent US20200040048A1 (published 2020), this text covers Ki, binding result and IC50 for four molecules.

Usually Ki stands for the dissociation constant of the complex between target and ligand, obtained from inhibition or displacement. In general, IC50 refers to the concentration that gives 50% inhibition. Low readings indicate higher potency, high ones lower potency.

Bridge positions count the residues as written; N and C are the ends. Square brackets hold non-standard residues; d marks the D form. dPhe(4-CF3) = N[C@H](Cc1ccc(C(F)(F)F)cc1)C(=O)O; R8 = C=CCCCCCC[C@@](C)(N)C(=O)O; R5 = C=CCCC[C@@](C)(N)C(=O)O; hLeu = CC(C)CC[C@H](N)C(=O)O; S5 = C=CCCC[C@](C)(N)C(=O)O; Cou6 = not defined here; Cou8 = not defined here; βAla = NCCC(=O)O

One assay concerns the target T1, MDMX (40 kD), O15151.
T1 chain: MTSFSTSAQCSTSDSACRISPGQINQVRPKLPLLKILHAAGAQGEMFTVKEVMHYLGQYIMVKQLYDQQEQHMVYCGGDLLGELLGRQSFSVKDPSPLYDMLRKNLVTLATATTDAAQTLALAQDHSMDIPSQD
In words: competitive FP on MDMX, FAM-labeled linear peptide displaced; Ki grade, + = >1000 nM. The following applies: remark: other sources report otherwise.

Assay [1] concerns the target T2, zebrafish MDMX protein (residues 15-129, L46V/V95L) (zebrafish, UniProt Q7ZUW7 15-129).
T2 construct: Purified on Ni-NT agarose, so it probably carries a His tag from pET15b
T2 sequence (looked up): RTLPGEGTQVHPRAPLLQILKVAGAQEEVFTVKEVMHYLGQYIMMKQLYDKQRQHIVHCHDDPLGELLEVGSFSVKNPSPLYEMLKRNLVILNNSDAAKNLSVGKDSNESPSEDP
In words: X-ray co-crystallography, complex refined to 2.3 Å.

The next assay deals with T3, MDM2 (UniProt Q00987 1-138, limits assumed).
T3 construct: also called MDM2 (41 kD); HDM2
In words: competitive FP vs FAM-labeled linear peptide, MDM2 41 kD; grade, scale in paragraph 603.

T3 sequence (Q00987 1-138 limits assumed): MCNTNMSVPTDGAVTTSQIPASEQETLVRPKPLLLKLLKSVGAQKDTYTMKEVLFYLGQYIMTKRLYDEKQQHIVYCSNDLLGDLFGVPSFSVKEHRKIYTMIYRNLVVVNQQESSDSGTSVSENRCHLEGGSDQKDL

B1: SP447 Cou8BaLTF$r8EYWAQhL$SAA-NH2 (peptide)
peptide: Cou8-[βAla]LTF[R8]EYWAQ[hLeu][S5]SAA-NH2
modifications: staple 5-12; reading uncertain
As for B1, the Ki with MDMX (40 kD), O15151 is > 1000 nM.

B2: SP446 Cou6BaLTF$r8EYWAQhL$SAA-NH2 (peptide)
peptide: Cou6-[βAla]LTF[R8]EYWAQ[hLeu][S5]SAA-NH2
modifications: staple 5-12; reading uncertain
Consider B2, for which, in the assay with MDMX (40 kD), O15151, the inhibition constant Ki is > 1000 nM.

B3: Ac-QSQQTF%r8NLWRLL%QN-NH2 (peptide)
peptide: QSQQTFANLWRLLAQN
modifications: not fully specified; N-terminal acetyl; C-terminal amide; %r8 at position 7 and % at position 14 are crosslinked alpha-methyl non-natural amino acids forming the i, i+7 aliphatic staple (the token '%' alone is not defined in the filing)
As to B3, in assay [1], the binding result was “binds”.

B4: peptidomimetic macrocycle SP 755 (peptide)
peptide: Ac-[dT][dA][dW][dY][dA][dN][dPhe(4-CF3)][dE][R5][dL][dL][dR][R5][dA]-NH2
modifications: staple 9-13
notes: also called Ac-tawyanf4CF3e$r5llr$r5a-NH2
B4: in the assay with MDM2, the half-maximal inhibitory concentration (IC50) is ≤ 10 nM.
